Read-outs that look alike come from different tables or passages of the source.
How the values were obtained:
ACE2 [1] = target: ACE2
ACE2 [2] = assay: ratio of ACE2 binding ELISA to Spike RBD detection ELISA; concentrated supernatant of virus-infected Vero cells
ACE2 [3] = assay: ACE2 binding detection ELISA (ACE2 on solid phase, detection with anti-spikeRBD antibody); concentrated supernatant of virus-infected Vero cells

Substance: Cov2SPPF (polypeptide B: structure of A with further deletion of the furin cleavage site, R683A R685 (from UniProt P0DTC2 14-1273)
- ACE2 bind (ACE2 [1]): 7 ng/mL
- ACE2 bind/ Spike RBD (ACE2 [1]): 0.076
- ACE2 bind/ Spike RBD (ACE2 [2]): 0.094
- ACE2 bind (ACE2 [3]): 0.5 ng/mL

Substance: Cov2STH (polypeptide C: mu-phosphatase leader, extracellular region (ECD) of the spike protein, PP m (from UniProt P0DTC2 16-1213)
- ACE2 bind (ACE2 [1]): 202 ng/mL
- ACE2 bind/ Spike RBD (ACE2 [1]): 2.3
- ACE2 bind/ Spike RBD (ACE2 [2]): 6.5
- ACE2 bind (ACE2 [3]): 19.8 ng/mL

Reference: EP4574169A1
